Test results: US20220144957A1 (IMMUNECENT BIOTECHNOLOGY, published 2022)
Read-outs that look alike come from different tables or passages of the source.

T1: human IFNAR1, full length (IFNAR1-aa1-557) (human, UniProt P17181 28-557)
T1 sequence (looked up): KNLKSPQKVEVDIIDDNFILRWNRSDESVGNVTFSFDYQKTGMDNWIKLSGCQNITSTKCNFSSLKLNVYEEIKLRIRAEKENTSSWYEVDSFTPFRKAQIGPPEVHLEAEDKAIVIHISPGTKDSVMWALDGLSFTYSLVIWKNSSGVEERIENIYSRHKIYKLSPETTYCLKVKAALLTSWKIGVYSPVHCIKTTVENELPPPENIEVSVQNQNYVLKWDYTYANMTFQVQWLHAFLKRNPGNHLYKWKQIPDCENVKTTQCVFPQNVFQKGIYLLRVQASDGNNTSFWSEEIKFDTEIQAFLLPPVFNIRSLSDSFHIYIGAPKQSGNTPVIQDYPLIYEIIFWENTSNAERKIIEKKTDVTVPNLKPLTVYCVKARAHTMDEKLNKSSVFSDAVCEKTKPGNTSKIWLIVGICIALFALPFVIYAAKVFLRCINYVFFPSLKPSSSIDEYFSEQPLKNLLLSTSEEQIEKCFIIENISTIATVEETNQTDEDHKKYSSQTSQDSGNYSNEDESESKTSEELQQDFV

T2: human/mouse chimeric IFNAR1 variant IFNAR1-m149-214 (human, with residues 149-214 replaced …, UniProt P17181 28-557)
T2 construct: expressed on 293T cells
T2 chain: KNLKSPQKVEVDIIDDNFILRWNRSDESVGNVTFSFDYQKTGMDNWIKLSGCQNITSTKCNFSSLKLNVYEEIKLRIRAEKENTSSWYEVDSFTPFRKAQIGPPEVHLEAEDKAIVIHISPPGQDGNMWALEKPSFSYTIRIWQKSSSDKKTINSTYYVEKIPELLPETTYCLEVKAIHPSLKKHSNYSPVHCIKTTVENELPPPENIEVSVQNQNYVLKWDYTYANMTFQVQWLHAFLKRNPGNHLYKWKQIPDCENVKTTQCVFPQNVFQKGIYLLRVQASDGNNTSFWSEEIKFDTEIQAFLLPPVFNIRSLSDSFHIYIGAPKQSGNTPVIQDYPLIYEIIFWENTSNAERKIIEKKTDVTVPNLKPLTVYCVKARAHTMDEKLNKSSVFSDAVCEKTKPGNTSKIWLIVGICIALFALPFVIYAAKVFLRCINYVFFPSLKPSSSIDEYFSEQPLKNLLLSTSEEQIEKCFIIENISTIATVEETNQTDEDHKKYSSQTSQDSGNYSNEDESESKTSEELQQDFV


Tests used:
[1] = biological target: T1, human IFNAR1, full length …; assay: cell-based or functional assay
[2] = biological target: T2, human/mouse chimeric IFNAR1 variant …; assay: flow cytometry, 293T cells overexpressing IFNAR1-m149-214, MFI
Procedure: (§1) After the incubation, the cells were centrifuged and re-suspended with 200 μL of FACS buffer, before next centrifugation and re-suspension.
(§2) PE-labeled goat anti-mouse IgG antibody (Biolegend) diluted in FACS buffer at 1:400 was added to each well. The cells were re-suspended and incubated at 4° C. for 30 min in the dark. After the incubation, the plate was centrifuged, the supernatant was discarded, and the cells were washed once as described above and re-suspended by adding 200 μL FACS buffer. Finally, the re-suspended cells were analyzed using a flow cytometer Guava (Millipore) for cellular GFP and PE signals.

[3] = biological target: T2, human/mouse chimeric IFNAR1 variant …; assay: as above
Procedure: as §1, §2

Row | fold decrease in percentage of GFP positive reporter cells with serum from SLE patients [1] | binding result [2] | binding result [3] | Binder
1 | ~3 fold | binds | – | anti-human IFNAR1 monoclonal antibody 7G4 (antibody, V domains shown, Mouse monoclonal antibody from hybridoma CGMCC No. 16286) VH: QVQLQQPGAELVKPGAPVKLSCKASGYTFTSYWMNWVRQRPGRGLEWIGKIDPSDSETHFNQKFRDKATLTVDKSSTTAYIQLSSLTSEDSAVYYCARGGRISFDYDAALDYWGQGTSVTVSS VL: DILMTQSSSSFSVSLGDRVTITCKSSEVIYNRLAWFQQKPGNAPRLLISGATTLESGFPSRFSGSGSGKDYTLSITSLQIEDVSTYYCQQYWNKPFTFGSGTKLEVK
2 | ~3 fold | – | binds | anti-human IFNAR1 monoclonal antibody 10C5 (antibody, V domains shown, Mouse monoclonal antibody from hybridoma CGMCC No. 16287) VH: QVQLQQPGTELVKPGSPVKLSCKASGYTFTSFWLNWVQQRPGRGLEWIGKIDPSDSEIRYNQKFKDKATLTVDKSSNTAYIQLSSLTSEDSAVYYCARGGGIYYDYDGAMDYWGQGTSVTVSS VL: DIQMTQSSSSFSVSLGDRLTITCKASEVIYNRLAWFQQKPGNAPRLLISGATSLETGVPSRFSGSGSRKDYTLSISSLQTEDVATYYCQQYWSSPFTFGSGTKLEIK
